To fix the notation:
B1: FGF21 truncation mutant 1-167 (ligand)
chain: HPIPDSSPLLQFGGQVRQRYLYTDDAQQTEAHLEIREDGTVGGAADQSPESLLQLKALKPGVIQILGVKTSRFLCQRPDGALYGSLHFDPEACSFRELLLEDGYNVYQSEAHGLPLHLPGNKSPHRDPAPRGPARFLPLPGLPPAPPEPPGILAPQPPDVGSSDPLS
B2: FGF21 truncation mutant 1-174 (ligand)
chain: HPIPDSSPLLQFGGQVRQRYLYTDDAQQTEAHLEIREDGTVGGAADQSPESLLQLKALKPGVIQILGVKTSRFLCQRPDGALYGSLHFDPEACSFRELLLEDGYNVYQSEAHGLPLHLPGNKSPHRDPAPRGPARFLPLPGLPPAPPEPPGILAPQPPDVGSSDPLSMVGPSQG
B3: FGF21 truncation mutant 1-177 (ligand)
chain: HPIPDSSPLLQFGGQVRQRYLYTDDAQQTEAHLEIREDGTVGGAADQSPESLLQLKALKPGVIQILGVKTSRFLCQRPDGALYGSLHFDPEACSFRELLLEDGYNVYQSEAHGLPLHLPGNKSPHRDPAPRGPARFLPLPGLPPAPPEPPGILAPQPPDVGSSDPLSMVGPSQGRSP
B4: FGF21 truncation mutant 1-176 (ligand)
chain: HPIPDSSPLLQFGGQVRQRYLYTDDAQQTEAHLEIREDGTVGGAADQSPESLLQLKALKPGVIQILGVKTSRFLCQRPDGALYGSLHFDPEACSFRELLLEDGYNVYQSEAHGLPLHLPGNKSPHRDPAPRGPARFLPLPGLPPAPPEPPGILAPQPPDVGSSDPLSMVGPSQGRS
B5: FGF21 truncation mutant 3-181 (ligand)
chain: IPDSSPLLQFGGQVRQRYLYTDDAQQTEAHLEIREDGTVGGAADQSPESLLQLKALKPGVIQILGVKTSRFLCQRPDGALYGSLHFDPEACSFRELLLEDGYNVYQSEAHGLPLHLPGNKSPHRDPAPRGPARFLPLPGLPPAPPEPPGILAPQPPDVGSSDPLSMVGPSQGRSPSYAS
B6: FGF21 truncation mutant 1-165 (ligand)
chain: HPIPDSSPLLQFGGQVRQRYLYTDDAQQTEAHLEIREDGTVGGAADQSPESLLQLKALKPGVIQILGVKTSRFLCQRPDGALYGSLHFDPEACSFRELLLEDGYNVYQSEAHGLPLHLPGNKSPHRDPAPRGPARFLPLPGLPPAPPEPPGILAPQPPDVGSSDP
B7: FGF21 truncation mutant 9-181 (ligand)
chain: LLQFGGQVRQRYLYTDDAQQTEAHLEIREDGTVGGAADQSPESLLQLKALKPGVIQILGVKTSRFLCQRPDGALYGSLHFDPEACSFRELLLEDGYNVYQSEAHGLPLHLPGNKSPHRDPAPRGPARFLPLPGLPPAPPEPPGILAPQPPDVGSSDPLSMVGPSQGRSPSYAS
B8: FGF21 truncation mutant 1-171 (ligand)
chain: HPIPDSSPLLQFGGQVRQRYLYTDDAQQTEAHLEIREDGTVGGAADQSPESLLQLKALKPGVIQILGVKTSRFLCQRPDGALYGSLHFDPEACSFRELLLEDGYNVYQSEAHGLPLHLPGNKSPHRDPAPRGPARFLPLPGLPPAPPEPPGILAPQPPDVGSSDPLSMVGP
B9: FGF21 truncation mutant 1-169 (ligand)
chain: HPIPDSSPLLQFGGQVRQRYLYTDDAQQTEAHLEIREDGTVGGAADQSPESLLQLKALKPGVIQILGVKTSRFLCQRPDGALYGSLHFDPEACSFRELLLEDGYNVYQSEAHGLPLHLPGNKSPHRDPAPRGPARFLPLPGLPPAPPEPPGILAPQPPDVGSSDPLSMV
B10: FGF21 truncation mutant 1-166 (ligand)
chain: HPIPDSSPLLQFGGQVRQRYLYTDDAQQTEAHLEIREDGTVGGAADQSPESLLQLKALKPGVIQILGVKTSRFLCQRPDGALYGSLHFDPEACSFRELLLEDGYNVYQSEAHGLPLHLPGNKSPHRDPAPRGPARFLPLPGLPPAPPEPPGILAPQPPDVGSSDPL
B11: FGF21 truncation mutant 1-173 (ligand)
chain: HPIPDSSPLLQFGGQVRQRYLYTDDAQQTEAHLEIREDGTVGGAADQSPESLLQLKALKPGVIQILGVKTSRFLCQRPDGALYGSLHFDPEACSFRELLLEDGYNVYQSEAHGLPLHLPGNKSPHRDPAPRGPARFLPLPGLPPAPPEPPGILAPQPPDVGSSDPLSMVGPSQ
B12: FGF21 truncation mutant 8-181 (ligand)
chain: PLLQFGGQVRQRYLYTDDAQQTEAHLEIREDGTVGGAADQSPESLLQLKALKPGVIQILGVKTSRFLCQRPDGALYGSLHFDPEACSFRELLLEDGYNVYQSEAHGLPLHLPGNKSPHRDPAPRGPARFLPLPGLPPAPPEPPGILAPQPPDVGSSDPLSMVGPSQGRSPSYAS
B13: FGF21 truncation mutant 1-180 (ligand)
chain: HPIPDSSPLLQFGGQVRQRYLYTDDAQQTEAHLEIREDGTVGGAADQSPESLLQLKALKPGVIQILGVKTSRFLCQRPDGALYGSLHFDPEACSFRELLLEDGYNVYQSEAHGLPLHLPGNKSPHRDPAPRGPARFLPLPGLPPAPPEPPGILAPQPPDVGSSDPLSMVGPSQGRSPSYA
B14: FGF21 truncation mutant 1-172 (ligand)
chain: HPIPDSSPLLQFGGQVRQRYLYTDDAQQTEAHLEIREDGTVGGAADQSPESLLQLKALKPGVIQILGVKTSRFLCQRPDGALYGSLHFDPEACSFRELLLEDGYNVYQSEAHGLPLHLPGNKSPHRDPAPRGPARFLPLPGLPPAPPEPPGILAPQPPDVGSSDPLSMVGPS
B15: FGF21 truncation mutant 5-181 (ligand)
chain: DSSPLLQFGGQVRQRYLYTDDAQQTEAHLEIREDGTVGGAADQSPESLLQLKALKPGVIQILGVKTSRFLCQRPDGALYGSLHFDPEACSFRELLLEDGYNVYQSEAHGLPLHLPGNKSPHRDPAPRGPARFLPLPGLPPAPPEPPGILAPQPPDVGSSDPLSMVGPSQGRSPSYAS
B16: FGF21 truncation mutant 1-178 (ligand)
chain: HPIPDSSPLLQFGGQVRQRYLYTDDAQQTEAHLEIREDGTVGGAADQSPESLLQLKALKPGVIQILGVKTSRFLCQRPDGALYGSLHFDPEACSFRELLLEDGYNVYQSEAHGLPLHLPGNKSPHRDPAPRGPARFLPLPGLPPAPPEPPGILAPQPPDVGSSDPLSMVGPSQGRSPS
B17: FGF21 truncation mutant 2-181 (ligand)
chain: PIPDSSPLLQFGGQVRQRYLYTDDAQQTEAHLEIREDGTVGGAADQSPESLLQLKALKPGVIQILGVKTSRFLCQRPDGALYGSLHFDPEACSFRELLLEDGYNVYQSEAHGLPLHLPGNKSPHRDPAPRGPARFLPLPGLPPAPPEPPGILAPQPPDVGSSDPLSMVGPSQGRSPSYAS
B18: FGF21 truncation mutant 7-181 (ligand)
chain: SPLLQFGGQVRQRYLYTDDAQQTEAHLEIREDGTVGGAADQSPESLLQLKALKPGVIQILGVKTSRFLCQRPDGALYGSLHFDPEACSFRELLLEDGYNVYQSEAHGLPLHLPGNKSPHRDPAPRGPARFLPLPGLPPAPPEPPGILAPQPPDVGSSDPLSMVGPSQGRSPSYAS
B19: FGF21 truncation mutant 4-181 (ligand)
chain: PDSSPLLQFGGQVRQRYLYTDDAQQTEAHLEIREDGTVGGAADQSPESLLQLKALKPGVIQILGVKTSRFLCQRPDGALYGSLHFDPEACSFRELLLEDGYNVYQSEAHGLPLHLPGNKSPHRDPAPRGPARFLPLPGLPPAPPEPPGILAPQPPDVGSSDPLSMVGPSQGRSPSYAS
B20: human FGF21 (wild-type mature FGF21 polypeptide) (ligand)
chain: HPIPDSSPLLQFGGQVRQRYLYTDDAQQTEAHLEIREDGTVGGAADQSPESLLQLKALKPGVIQILGVKTSRFLCQRPDGALYGSLHFDPEACSFRELLLEDGYNVYQSEAHGLPLHLPGNKSPHRDPAPRGPARFLPLPGLPPAPPEPPGILAPQPPDVGSSDPLSMVGPSQGRSPSYAS

The target of the first assay is beta-klotho. Briefly: cell-based or functional assay.
In the case of B1, the “Efficacy (ELK-luciferase assay, relative to wild-type FGF21)” value is approximately 20%.
The same measure, in the same setting: under B2 stands 105%.
For B3, the “Efficacy (ELK-luciferase assay, relative to wild-type FGF21)” value turned out to be 112%.
B4: the “Efficacy (ELK-luciferase assay, relative to wild-type FGF21)” value came to 105%.
On the same count and under the same terms, under B5 stands 130%; under B6, approximately 10%; under B7, 12.5%.
Same read-out and setting: to B8 belongs 113%; to B9, 84.9%.
Regarding B10, the “Efficacy (ELK-luciferase assay, relative to wild-type FGF21)” value was approximately 20%.
Still for that read-out and setting: to B11 belongs 96.1%; to B12, 24.9%.
Consider B13, for which the “Efficacy (ELK-luciferase assay, relative to wild-type FGF21)” value was determined as 93.2%.
Still for that read-out and setting: to B14 belongs 97.5%; to B15, 120%.
Still for that read-out and setting: to B16 belongs 95%; to B17, 112%.
For the molecule B18, the “Efficacy (ELK-luciferase assay, relative to wild-type FGF21)” value worked out at 74.2%.
Same read-out and setting: under B19 stands 117%.

The target in a further assay is beta-klotho. Briefly: cell-based or functional assay. This is another data set of the same source.
Regarding B20, the “EC50 (ELK-luciferase assay)” value amounted to 0.4 nM.

(Values after patent US20210317176A1 (Amgen, published 2021).)
